Measured values as given in article PMC5662663 (Scientific Reports, 2017).

B1: Nanobody Nb17 (VHH)
VHH: QRQLVESGGGLVQAGGSLRLSCAASGRTFSSYVMGWFRQAPGKEREAVASISWSGGSTYYADSVKGRFTISRDNAKNTVYLQMNSLKPEDTAVYYCAADHRTYYTGTYSPDYWGKGTPVTVSS
notes: Alpaca nanobody selected by phage display against BtuF; source: E. coli WK6, periplasmic extract, purified (IMAC, PD10 desalting)
B2: Nanobody Nb10 (VHH)
VHH: QLQLVESGGGLVQPGGSLRLSCAASGFTLDYYAIGWFRQAPGKEREGVSCISSSGGSTNYADSVKGRFTISRDNAKNTVYLQMNSLKPEDTAVYYCAADYAGRGFCAGLYDYWSQGTPVTVSS
B3: Nanobody Nb7 (VHH)
VHH: QGQLVESGGGLVQPGGSLRLSCVASGFDFSNYTMSWVRQAPGKGLEWVSDISSGGGSTYYADSVKGRFTISRDNAKNTVYLQMNTLKPEDTAVYLCTELGVAPPGQGTRVTVSS
notes: as for B1
B4: Nanobody Nb15 (VHH)
VHH: QVQLVESGGGLVQPGGSLRLSCTASEATLDDYAIGWFRQAPGKEREGVSCIGSSGDVTHYADSVKGRFTISRDNAKNTGYLQLNNLRPEDTAVYYCAAAHRILGGCLVIHSSDYTSSSKGTRVTVSS
notes: as for B1
B5: Nanobody Nb9 (VHH)
VHH: QMQLVESGGGLVQPGGSLRLSCAAPESTLDDYAIGWFRQAPGKEREGVSCIGSSGDSTNYADSVKGRFTVSRDNAKNTVYLQMNDLRPEDTAVYYCAAAHRIFGGCLVIHSSGYVSWGQGTPVTVSS
notes: Alpaca nanobody selected by phage display against BtuF; additional disulfide bond between C72 (CDR2) and C128 (CDR3); source: E. coli WK6, periplasmic extract, purified (IMAC, PD10 desalting)
B6: Nanobody Nb14 (VHH)
VHH: QLQLVESGGGLVQPGGSLRLSCAASGFTFSSVAMSWVRQAPGKGLEWVSDINSVGSTYYADSVKGRFTISRDNAKNTVYLQMNSLKPEDTAVYYCVPLGERPEIHGGKGTPVTVSS

Biological target: Fluorescein-labeled variant of BtuF (BtuF_(fluo)) (Escherichia coli) (UniProt P37028)
Test: fluorescence kinetics of nanobody displacement by Cbl; 10 nM BtuF_(fluo) equilibrated with 10 nM nanobody, then 1, 5 or 10 μM Cbl; slow phase of fluorescence decrease at 520 nm gives koff; kon calculated as koff/Ki; 50 mM Tris-HCl pH 7.5, 200 mM NaCl, 0.001% Tween 20, 23 °C
Settings: not given

In order of rising koff:
1. B3  0.0019 s⁻¹
2. B1  0.0025 s⁻¹
3. B2  0.0071 s⁻¹

In order of rising kon:
1. B1  46000 M⁻¹ s⁻¹
2. B3  79000 M⁻¹ s⁻¹
3. B2  1.2e+06 M⁻¹ s⁻¹

In order of falling occupancy of BtuF (fluo) with nanobody (10 nM each):
1. B2  53%
2. B3  30%
3. B1  14%

Biological target: T1, BtuF, periplasmic substrate-binding protein of the Escherichia coli vitamin B12 transporter BtuCD-F, tag-less (Escherichia coli (K12 sequence), UniProt P37028)
T1 construct: the assays name the protein tag-less; also called tag-less BtuF; tagless BtuF; source: prepared as described previously [6,18], purified; not shown: His-tag (3C cleavable), C-terminal, cleaved
Test: pull-down; His-tagged nanobodies immobilized on Ni-NTA, 1.5 molar excess of tagless BtuF, 1.5 hours at 4 °C; wash 50 mM Tris-HCl pH 7.5, 250 mM NaCl, 10% glycerol, 20 mM imidazole; elution 500 mM imidazole; SDS-PAGE; no Cbl
Settings: both partners purified

B1: binds.
B4: binds.
B5: binds.
B3: binds.

Biological target: Fluorescein-labeled variant of BtuF (BtuF_(fluo)) (Escherichia coli) (UniProt P37028)
Test: other fluorescence titration; equilibrium competition in solution: 5 nM BtuF_(fluo), Cbl 0.3 nM to 10 μM at a constant nanobody concentration (5 μM Nb14; 1 μM Nb7, Nb15, Nb17; 100 nM Nb9, Nb10); 50 mM Tris-HCl pH 7.5, 200 mM NaCl, 0.001% Tween 20, 23 °C; Ki fitted with Dynafit with Kd of Cbl 8.1 nM as input
Settings: not given

In order of falling Ki:
1. B6  770 nM
2. B4  79 nM
3. B1  54 nM
4. B3  24 nM
5. B2  6 nM
